Assay results from patent US20220242973A1 (Molecular Partners, published 2022).

T1: Recombinant human FAP (fibroblast activation protein) (human, UniProt Q12884 26-760)
T1 sequence (looked up): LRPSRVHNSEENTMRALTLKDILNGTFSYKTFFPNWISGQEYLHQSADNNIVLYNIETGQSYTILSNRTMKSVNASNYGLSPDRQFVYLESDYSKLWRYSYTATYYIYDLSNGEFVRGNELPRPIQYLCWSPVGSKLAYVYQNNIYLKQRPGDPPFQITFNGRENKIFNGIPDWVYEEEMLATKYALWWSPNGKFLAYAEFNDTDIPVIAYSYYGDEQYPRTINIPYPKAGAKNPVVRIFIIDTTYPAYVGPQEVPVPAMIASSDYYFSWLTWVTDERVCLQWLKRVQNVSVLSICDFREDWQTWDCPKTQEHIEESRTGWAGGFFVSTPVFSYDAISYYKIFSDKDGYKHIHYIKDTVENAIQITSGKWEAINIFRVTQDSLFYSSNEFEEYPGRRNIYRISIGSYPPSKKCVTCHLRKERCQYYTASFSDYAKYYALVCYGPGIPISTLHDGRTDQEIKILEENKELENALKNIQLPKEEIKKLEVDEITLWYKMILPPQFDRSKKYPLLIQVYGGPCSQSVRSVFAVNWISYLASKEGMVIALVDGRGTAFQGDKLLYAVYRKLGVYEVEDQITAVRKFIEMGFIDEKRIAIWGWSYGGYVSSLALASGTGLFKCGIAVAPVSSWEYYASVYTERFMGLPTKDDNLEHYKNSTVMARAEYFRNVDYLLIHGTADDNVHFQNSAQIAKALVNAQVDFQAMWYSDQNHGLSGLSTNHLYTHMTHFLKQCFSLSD

T2: Human FAP expressed on the cell surface (WI38, CHO-FAP1.9, U87MG cells) (human, UniProt Q12884 1-760)
T2 construct: whole, on cells; Endogenous on WI38 and U87MG cells; from a human FAP cDNA (OriGene) in CHO-FAP1.9 cells; also called hFAP; FAP+ cells
T2 sequence (looked up): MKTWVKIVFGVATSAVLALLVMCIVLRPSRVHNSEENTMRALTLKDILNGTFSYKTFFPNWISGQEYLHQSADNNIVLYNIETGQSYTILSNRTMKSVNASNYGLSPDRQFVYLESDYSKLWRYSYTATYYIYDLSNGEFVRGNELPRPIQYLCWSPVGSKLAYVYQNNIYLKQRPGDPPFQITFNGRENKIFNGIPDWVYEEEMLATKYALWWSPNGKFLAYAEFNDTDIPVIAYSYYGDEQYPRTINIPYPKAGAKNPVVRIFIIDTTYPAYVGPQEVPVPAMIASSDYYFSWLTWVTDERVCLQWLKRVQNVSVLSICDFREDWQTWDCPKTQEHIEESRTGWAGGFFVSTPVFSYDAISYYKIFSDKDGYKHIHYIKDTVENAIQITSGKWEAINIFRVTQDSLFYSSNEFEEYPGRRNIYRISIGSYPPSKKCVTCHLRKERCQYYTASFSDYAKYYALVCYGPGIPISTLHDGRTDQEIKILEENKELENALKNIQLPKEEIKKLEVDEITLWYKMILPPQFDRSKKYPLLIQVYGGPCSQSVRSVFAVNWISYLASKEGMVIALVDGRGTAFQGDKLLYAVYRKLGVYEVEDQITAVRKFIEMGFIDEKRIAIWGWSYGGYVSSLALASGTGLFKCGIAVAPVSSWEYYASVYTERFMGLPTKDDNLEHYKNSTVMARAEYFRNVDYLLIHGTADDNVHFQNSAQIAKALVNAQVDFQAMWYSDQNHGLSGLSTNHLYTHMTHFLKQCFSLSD

B1: DARPin® protein #18 (designed binder)
chain: MRGSHHHHHHGSYPYDVPDYAGSDLGKKLLEAARAGQDDEVRILLAAGADVNAKDVLGWTPLHLAAFEGHLEIVEVLLKAGADVNAKDKKGWTPLQLAARTGHLEIVEVLLKAGADVNAKDHIGATPLHLAAWQGHPEIVEVLLKAGADVNAQDKSGKTPADLAADAGHEDIAEVLQKLN
B2: DARPin® protein #4 (designed binder)
chain: MRGSHHHHHHGSYPYDVPDYAGSDLGHKLLEAATQGQDDEVRILLAAGADVNAKDEHGKTPLHLAAKKGHLEIVEVLLKAGADVNAKDDWGVTPLHLAAYWGHLEIVEVLLKAGADVNAQDNDGYTPADLAATFGHEDIAEVLQKLN
B3: DARPin® protein #26 (designed binder)
chain: MRGSHHHHHHGSYPYDVPDYAGSDLGKKLLEAARAGQDDEVRELLKAGADVNAKDEVGRTPLHLAAQIGHLEIVEVLLKAGADVNAKNRWGVTPLHVAAWVGHLEIVEVLLKAGADVNAKDQQGATPLHLAAIRGHLEIVEVLLKAGADVNAQDKSGKTPADLAADAGHEDIAEVLQKLN
B4: DARPin® protein #19 (designed binder)
chain: MRGSHHHHHHGSYPYDVPDYAGSDLGEKLLVAALYGQDDEVRILLAAGADVNAKDQWGLTPLHKAALQGHLEIVEVLLKAGADVNAKDERGHTPLHWAARFGHLEIVEVLLKAGADVNAQDQKGYTPADLAALWGHEDIAEVLQKLN
B5: DARPin® protein #30 (designed binder)
chain: MRGSHHHHHHGSYPYDVPDYAGSDMGKKLLEAARAGQDDEVRELLKAGADVNAKDEWGWTPLHVAAERGHLEIVEVLLKAGADVNAKDKHGVTPLHLAAWRGHLEIVEVLLKAGADVNAKDIQGLTPLHIAAHQGHLEIVEVLLKAGADVNAQDKSGKTPADLAADAGHEDIAEVLQKLN
B6: DARPin® protein #3 (designed binder)
chain: MRGSHHHHHHGSYPYDVPDYAGSDMGKKLLEAARAGQDDEVRILMANGADVNAFDQVGRTPLHLDALAGHLEIVEVLLKHGADVNAADMFGITPLHLAAFIGHLEIVEVLLKHGADVNAYDLDGRTPLHPAAYHGHLEIVEVLLKNGADVNAQDKFGKTAFDISIDNGNEDLAEILQKLN
B7: DARPin® protein #33 (designed binder)
chain: MRGSHHHHHHGSYPYDVPDYAGSDLGKKLLEAARAGQDDEVRELLKAGADVNAKDEWGKTPLHLAAIRGHLEIVEVLLKAGADVNAKDTHGITPLHLAAFVGHLEIVEVLLKAGADVNAKDYLGRTPLHIAAAKGHLEIVEVLLKAGADVNAQDKSGKTPADLAADAGHEDIVEVLQKLN
B8: DARPin® protein #29 (designed binder)
chain: MRGSHHHHHHGSYPYDVPDYAGSDLGKKLLEAARAGQDDEVRELLKAGADVNAKDTIGRTPLHIAARYGHLEIVEVLLKAGADVNAKDVYDITPLHLAAFLGHLEIVEVLLKAGADVNAKDYEGTTPLHVAAWHGHLEIVEVLLKAGADVNAQDKSGKTPADLAADAGHEDIAEVLQKLN
B9: DARPin® protein #28 (designed binder)
chain: MRGSHHHHHHGSYPYDVPDYAGSDLGKKLLEAARAGQDDEVRELLKAGADVNAKDEWGKTPLHYAAALGHLEIVEVLLKAGADVNAKDRWGATPLHIAAFAGHLEIVEVLLKAGADVNAKDEVGWTPLHLAARSGHLEIVEVLLKVGADVNAQDKSGKTPADLAADAGHEDIVEVLQKLN
B10: DARPin® protein #32 (designed binder)
chain: MRGSHHHHHHGSYPYDVPDYAGSDLGKKLLEAARAGQDDEVRELLKAGADVNAKDEWDKTPLHLAAALDHLEIVEVLLKAGADVNAKDQYGATPLHVAAFAGHLEIVEVLLKAGADVNAKDLFGWTPLHLAALRGHLEIVEVLLKAGADVNAQDKSGKTPADLAADAGHEDIVEVLQKLN
B11: DARPin® protein #9 (designed binder)
chain: MRGSHHHHHHGSYPYDVPDYAGSDLGKKLLEAARAGQDDEVRILMANGADVNAFDTTGRTPLHLAALWGHLEIVEVLLKHGADVNASDWFSITPLHLAAFMGHLEIVEVLLNHGADVNAQDKFGKTAFDISIDHGNEDLAEILQKLN

The binders below were run against T1, Recombinant human FAP (fibroblast …) (assay: cell-based or functional assay).

FAP activity (%)	Binder
112	B1
111	B2
106	B3
94	B4
101	B5
116	B6
102	B7
109	B8
103	B9
138	B10
115	B11

Each binder was assayed against T3, Cynomolgus FAP expressed on CHO cells (cynomolgus monkey (Macaca fascicularis)) (assay: FACS on cFAP-expressing CHO cells).
T3 construct: whole, on cells; also called cFAP-expressing CHO cells; cynomolgus FAP+ CHO cells
Protocol: (§1) Using multi-well plates, 20,000 WI38 cells were added per well in 50 μl of PBS. 50 μl of appropriate dilutions (2× dilution steps) of ankyrin repeat protein was then added to the cells and incubated for 30 minutes on ice. After the ankyrin repeat protein-binding reaction, cells were washed twice with PBS. Direct immunofluorescent detection of the His-tagged ankyrin repeat proteins using Penta-His AF647 conjugate (QIAgen) and determination of live cells using LIVE/DEAD™ Fixable Green Dead Cell Stain Kit (ThermoFisher) were then performed together in one step. The Penta-His AF647 conjugate and the LIVE/DEAD™ Fixable Green dye were applied to the cells together in 1/200 (Penta-His) and 1/1000 (LID Fixable) final dilutions and incubated for 20-30 minutes on ice. After washing the cells with PBS, cells were re-suspended in 1× CellFix™ buffer (BD Biosciences) (10× stock was diluted 1/10 in water). The samples were incubated in CellFix™ buffer for 15-20 minutes at RT, then spun down at 400 g for 5 min. Supernatant was discarded and cells were re-suspended in 200 μl PBS and stored at 4° C. until acquisition and FACS analysis. Acquisition and FACS analysis, including the determination of median fluorescence intensity (MFI), were done within 5 days after staining using an AttuneNxT instrument. Binding curves were fitted by non-linear regression curve fitting using GraphPad Prism software (v 7.0.4).
A series of dilutions of ankyrin repeat proteins were added to cFAP expressing CHO cells. The binding reaction and subsequent analysis and MFI measurements were performed essentially as described in Example 3 for the WI38 cells.

EC50 [nM]	Binder
5.6	B1
6.1	B3
4.1	B4
7.9	B7

The binders below were run against T1, Recombinant human FAP (fibroblast …) (assay: SPR (ProteOn), human FAP immobilized on GLC chip).
Protocol: Briefly, human FAP was diluted in 10 mM Na-acetate pH 5.3 buffer and covalently immobilized on a GLC chip (BioRad) to a level of around 2000 resonance units (RU). The interaction of ankyrin repeat protein and hFAP was then measured by injecting 200 μl running buffer (PBS, pH 7.4 containing 0.005% Tween 20®) containing serial dilutions of ankyrin repeat proteins covering a concentration range between 30 nM and 0.5 nM (on-rate measurement), followed by a running buffer flow for at least 25 minutes at a constant flow rate of 100 μl/min (off-rate measurement). The regeneration was performed using 15 μl of 10 mM Glycine pH 2 followed by 15 μl of 124 mM H₃PO₄. The signals (i.e. resonance unit (RU) values) of the interspots and a reference injection (i.e. injection of running buffer only) were subtracted from the RU traces obtained after injection of ankyrin repeat protein (double-referencing). Based on the SPR traces obtained from the on-rate and off-rate measurements, the on- and off-rate of the corresponding ankyrin repeat protein—FAP interaction was determined.
Dissociation constants (KD) were calculated from the estimated on- and off-rates using standard procedures known to the person skilled in the art. […] Table 1 provides the KD values of some selected ankyrin repeat proteins as examples.

Kd [nM]	Binder
0.115	B1
1.35	B2
0.053	B3
0.195	B4
7.02	B5
5.43	B6
0.241	B7
0.255	B8
0.15	B9
0.527	B10
0.186	B11

The binders below were run against T2, Human FAP expressed on the cell surface … (assay: FACS on FAP-expressing WI38 cells, Penta-His AF647 detection).
Protocol: as §1
EC₅₀ values were determined using standard procedures known to the person skilled in the art. […] Table 2 provides the EC₅₀ values of selected ankyrin repeat proteins as examples.

EC50 [nM]	Binder
0.188	B1
1.09	B2
0.15	B3
0.308	B4
0.65	B5
5.72	B6
0.205	B7
1.13	B8
0.781	B9
0.918	B10
0.276	B11
